Columns and labels:
158.3 [1] = assay: Biacore
2.69 LC2 = assay: Biacore
151 [2] = assay: Biacore
158.3 [3] = assay: KinExA
151 [4] = assay: KinExA

B1: Soluble human MSLN (other)
chain: EVEKTACPSGKKAREIDESLIFYKKWELEACVDAALLATQMDRVNAIPFTYEQLDVLKHKLDELYPQGYPESVIQHLGYLFLKMSPEDIRKWNVTSLETLKALLEVNKGHEMSPQAPRRPLPQVATLIDRFVKGRGQLDKDTLDTLTAFYPGYLCSLSPEELSSVPPSSIWAVRPQDLDTCDPRQLDVLYPKARLAFQNMNGSEYFVKIQSFLGGAPTEDLKALSQQNVSMDLATFMKLRTDAVLPLTVAEVQKLLGPHVEGLKAEERHRPVRDWILRQRQDDLDTLGLGLQGGIPNGYLVLDLSMQEALS
B1 was tested, and the Kd (158.3 [1]) was 2.4 nM, the Kd (2.69 LC2) was 0.228 nM and the Kd 151 [2] was 17.4 nM.

B2: Native hu MSLN (cells) (other)
chain: B1 chain
With B2 the Kd (158.3 [3]) was 0.0122 nM and the Kd 151 [4] was 0.03 nM.

From patent US20190055316A1 (published 2019)
